Experimental data: patent publication US20230220399
Like-named read-outs stand apart in the source and are kept apart here.

Legend:
Conditions in all cases: ELISA, SB18, 37 C
[1] = molecular target: 4-1BB (TNFRSF9) (Homo sapiens) (UniProt Q07011)
[2] = molecular target: human serum albumin (HSA) (Homo sapiens) (UniProt P02768)
[3] = molecular target: PD-L1 (B7-H1) (Homo sapiens) (UniProt Q9NZQ7)
KRAS G12D G12D, P01116-2 = test system: KRAS G12D G12D, P01116-2
[4] = Nap-dU at n (6) positions [5,10,11,12,18,20,22,24]
[5] = Nap-dU at n (6) positions [5,10,11,12,18,20,22,24,32]
[6] = Nap-dU at n (6) positions [Nap-dU at 24,31,33,36,39,40,43,52]
[7] = Nap-dU at n (6) positions [5,11,13,19,21,23,28]
[8] = Nap-dU at n (6) positions [5,11,13,19,21,23,28,36,38]
[9] = Nap-dU at n (6) positions [5,11,13,19,21,23,28,36,38,42-44]
[10] = Nap-dU at n (6) positions [5,11,13,19,21,23,28,36,38,42,43,44,45]
[11] = Nap-dU at n (6) positions [5,11,13,19,21,23,28,36,38,42-45,52,54]
[12] = Nap-dU at n (6) positions [5,11,13,19,21,23,28,36,37,39,44,45,50,52,54]
[13] = Nap-dU at n (6) positions [8,10-11,13,18-19,24,26,29]
[14] = Nap-dU at n (6) positions [8,10-11,13,18-19,24,26,29,36,39]
[15] = Nap-dU at n (6) positions [3,5-6,8,13-14,19,21,24]
[16] = Nap-dU at n (6) positions [5,7,9,14,22,24,28,29,30,31,38,40]
[17] = Nap-dU at n (6) positions [2,4,10,12,14,19,27,29,33,34,35,36,43,45]
[18] = Nap-dU at n (6) positions [4,9,13,19,26,27,28,30]
[19] = Nap-dU at n (6) positions [Nap-dU at 29,36,38,41,44,45,48,57]
[20] = Nap-dU at n (6) positions [16,25,27-28,30,35-36,41,43,46,53,56]
[21] = Nap-dU at n (6) positions [12,21,26,30,36,43,44,45,47,56]

Chain of PD-L1 (B7-H1) (Homo sapiens) (Q9NZQ7 19-238): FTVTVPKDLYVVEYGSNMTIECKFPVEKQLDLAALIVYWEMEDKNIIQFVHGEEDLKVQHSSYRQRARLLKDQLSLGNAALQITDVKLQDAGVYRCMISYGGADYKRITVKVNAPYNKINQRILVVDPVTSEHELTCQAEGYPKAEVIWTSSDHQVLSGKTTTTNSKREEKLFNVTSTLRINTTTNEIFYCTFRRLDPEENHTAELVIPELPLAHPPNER
Chain of 4-1BB (TNFRSF9) (Homo sapiens) (Q07011 24-186): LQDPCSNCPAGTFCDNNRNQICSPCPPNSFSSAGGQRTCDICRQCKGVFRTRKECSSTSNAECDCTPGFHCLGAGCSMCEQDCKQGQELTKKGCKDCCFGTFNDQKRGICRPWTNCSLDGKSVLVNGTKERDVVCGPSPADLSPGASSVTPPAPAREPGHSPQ

Work on AACCTCGCCTTTACAACTATATCTGACGAAC [AB005] yielded a Kd [1, 4] of 0.12 nM and a Kd [2, 4] of 53.5 nM.
In the case of “AACCTCGCCTTTACAACTATATCTGACGAACTAACA [AB004]”, the Kd [1, 5] is reported as 0.05 nM and the Kd [2, 5] is reported as 102 nM.
“ACCGTCTGCCTGACAACAACGAGTGCGAACTGTACTACTTGATAGAGACCCTCAGCCACACCACCAGCC [AP021]” gave a Kd [3, 6] of 130 nM and a Kd [2, 6] of 15.6 nM.
“CAGGTCGAGCTGTACGCGTGTGTGACCTGAAGAC [AD043]” was tested, and the Kd (KRAS G12D G12D, P01116-2; [7]) was 263 nM and the Kd [2, 7] was 4.18 nM.
With “CAGGTCGAGCTGTACGCGTGTGTGACCTGAAGACGTATA [AD044]” the Kd (KRAS G12D G12D, P01116-2; [8]) was 1580 nM and the Kd [2, 8] was 2.93 nM.
“CAGGTCGAGCTGTACGCGTGTGTGACCTGAAGACGTATAACTTT [AD045]” gave a Kd (KRAS G12D G12D, P01116-2; [9]) of 20 nM and a Kd [2, 9] of 0.73 nM.
Work on “CAGGTCGAGCTGTACGCGTGTGTGACCTGAAGACGTATAACTTTTACAG [AD046]” yielded a Kd (KRAS G12D G12D, P01116-2; [10]) of 5.38 nM and a Kd [2, 10] of 0.65 nM.
“CAGGTCGAGCTGTACGCGTGTGTGACCTGAAGACGTATAACTTTTACAGAATCTACA [AD032]” showed a Kd (KRAS G12D G12D, P01116-2; [11]) of 15.5 nM and a Kd [2, 11] of 0.68 nM.
With “CAGGTCGAGCTGTACGCGTGTGTGACCTGCCCCACTTCTGACATTAGACTGTGTAGA [AD034]” the Kd (KRAS G12D G12D, P01116-2; [12]) was 473 nM and the Kd [2, 12] was 0.59 nM.
With CCCCGCCTCTTCTGAAGTTAACATGTGCTCC [AD014] the Kd (KRAS G12D G12D, P01116-2; [13]) was 1.95 nM and the Kd [2, 13] was 28.8 nM.
With “CCCCGCCTCTTCTGAAGTTAACATGTGCTCCGAGA [AD012]” the Kd (KRAS G12D G12D, P01116-2; [13]) was 23.1 nM and the Kd [2, 13] was 28.7 nM.
For “CCCCGCCTCTTCTGAAGTTAACATGTGCTCCGAGATGGTA [AD011]”, the Kd (KRAS G12D G12D, P01116-2; [14]) was 9.46 nM and the Kd [2, 14] was 5.46 nM.
Work on CCTCTTCTGAAGTTAACATGTGCTCC [AD015] yielded a Kd [2, 15] of 36.8 nM.
Work on CCTCTTCTGAAGTTAACATGTGCTCCGAGA [AD013] yielded a Kd (KRAS G12D G12D, P01116-2; [15]) of 3.99 nM and a Kd [2, 15] of 47 nM.
Work on “CGCGTGTGTGACCTGAAGACGTATAACTTTTACAGAATCTACA [AD051]” yielded a Kd (KRAS G12D G12D, P01116-2; [16]) of 514 nM and a Kd [2, 16] of 5.95 nM.
With “CTGTACGCGTGTGTGACCTGAAGACGTATAACTTTTACAGAATCTACA [AD052]” the Kd (KRAS G12D G12D, P01116-2; [17]) was 4.93 nM and the Kd [2, 17] was 3.06 nM.
For “GACTAGCATAAGTCCGGATGGCAGCTTTATGCCG [AD006]”, the Kd (KRAS G12D G12D, P01116-2; [18]) was 77.6 nM and the Kd [2, 18] was 939 nM.
“GAGTGACCGTCTGCCTGACAACAACGAGTGCGAACTGTACTACTTGATAGAGACCCTC [AP023]” was tested, and the Kd [3, 19] was 93.2 nM and the Kd [2, 19] was 51.7 nM.
“GAGTGACCGTCTGCCTGACAACAACGAGTGCGAACTGTACTACTTGATAGAGACCCTCAGCCACACCACCAGCC [AP013]” gave a Kd [3, 19] of 74 nM and a Kd [2, 19] of 19.1 nM.
“GAGTGACCGTCTGCCTGCCCCGCCTCTTCTGAAGTTAACATGTGCTCCGAGATGGTACAGCCACACCACCAGCC [AD009]” gave a Kd (KRAS G12D G12D, P01116-2; [20]) of 0.51 nM and a Kd [2, 20] of 0.65 nM.
Work on “GAGTGACCGTCTGCCTGGACTAGCATAAGTCCGGATGGCAGCTTTATGCCGACCATCAGCCACACCACCAGCC [AD003]” yielded a Kd (KRAS G12D G12D, P01116-2; [21]) of 13.8 nM and a Kd [2, 21] of 13 nM.
For “GAGTGACCGTCTGCCTGGATATGCCTCTTCTGCAGTTACGGTGTGATCGCCCAATAGCAGCCACACCACCAGCC [TD009]”, the Kd (KRAS G12D G12D, P01116-2; Nap-dU at n (6) positions [Nap-dU at 20,22,26,28,29,31,36,37,42,44,47,55]) was 2480 nM.
